Assay [1] has as its target T1, recombinant human EpCAM (R&D systems, cat no 9277-EP) (human, UniProt P16422 24-265).
T1 construct: also called human EpCAM extracellular domain
T1 sequence: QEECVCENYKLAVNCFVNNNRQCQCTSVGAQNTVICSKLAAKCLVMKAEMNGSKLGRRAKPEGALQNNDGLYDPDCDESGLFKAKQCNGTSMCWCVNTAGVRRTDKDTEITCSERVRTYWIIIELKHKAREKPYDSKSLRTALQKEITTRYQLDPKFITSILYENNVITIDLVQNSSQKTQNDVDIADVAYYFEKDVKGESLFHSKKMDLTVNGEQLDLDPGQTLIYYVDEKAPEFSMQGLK
Description: BLI (Octet HTX); His-tagged human EpCAM on anti-Penta-HIS sensors, antibody 1.56-100 nM as analyte.

Assay [2] addresses T1, recombinant human EpCAM (R&D systems, …). The assay can be described thus: BLI (Octet HTX); His-tagged human EpCAM on anti-Penta-HIS sensors, antibody as analyte; 1:1 global full fit.
The target of assay [3] is T2, full length human EpCAM on cells (human, UniProt P16422 24-314).
T2 construct: the cell line is named under assay; also called EpCAM on DiFi, HPAF-II and A549 tumor cells; CHO-S cells transfected with full length human EpCAM
T2 sequence: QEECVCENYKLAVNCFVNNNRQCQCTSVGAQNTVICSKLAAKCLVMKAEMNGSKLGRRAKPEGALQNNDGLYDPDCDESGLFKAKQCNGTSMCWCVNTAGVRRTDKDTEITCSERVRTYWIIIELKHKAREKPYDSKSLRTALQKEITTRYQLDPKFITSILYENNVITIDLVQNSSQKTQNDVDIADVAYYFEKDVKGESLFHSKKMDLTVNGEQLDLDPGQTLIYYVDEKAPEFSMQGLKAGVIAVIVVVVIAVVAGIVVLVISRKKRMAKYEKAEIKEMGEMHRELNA
The assay can be described thus: flow cytometry on DiFi, HPAF-II and A549 tumor cells. For orientation: Flow cytometry measures light scatter and fluorescence of single cells or particles in a stream.

Assay [4] addresses T2, full length human EpCAM on cells. The assay can be described thus: flow cytometry on CHO-S cells transfected with human EpCAM.
For assay [5], the target named is T3, full length mouse EpCAM on CHO-S cells (mouse, UniProt Q99JW5 24-315).
T3 sequence: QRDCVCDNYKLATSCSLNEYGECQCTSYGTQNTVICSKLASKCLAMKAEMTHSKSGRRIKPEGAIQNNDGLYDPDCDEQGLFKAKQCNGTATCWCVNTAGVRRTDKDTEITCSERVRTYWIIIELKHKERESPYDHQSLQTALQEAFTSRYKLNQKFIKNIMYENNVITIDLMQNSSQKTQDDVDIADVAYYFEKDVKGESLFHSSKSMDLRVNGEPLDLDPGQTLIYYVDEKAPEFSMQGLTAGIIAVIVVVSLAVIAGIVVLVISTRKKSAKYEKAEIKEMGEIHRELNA
Description: flow cytometry on CHO-S cells transfected with mouse EpCAM.

Assay [6] has as its target T4, full length cynomolgus monkey EpCAM on CHO-S cells (cynomolgus monkey, UniProt Q1WER1 24-314 (rhesus entry)).
T4 sequence: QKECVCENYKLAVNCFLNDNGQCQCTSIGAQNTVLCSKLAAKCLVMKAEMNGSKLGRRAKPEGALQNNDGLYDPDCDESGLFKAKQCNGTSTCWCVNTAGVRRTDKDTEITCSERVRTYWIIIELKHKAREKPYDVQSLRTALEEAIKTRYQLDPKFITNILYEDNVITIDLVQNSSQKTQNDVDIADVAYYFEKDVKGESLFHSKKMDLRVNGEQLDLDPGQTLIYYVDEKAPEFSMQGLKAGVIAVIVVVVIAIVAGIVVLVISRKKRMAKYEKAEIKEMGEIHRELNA
Description: flow cytometry on CHO-S cells transfected with cynomolgus monkey EpCAM.

As usually defined, the Kd is the constant that tells how readily two partners part at equilibrium. One may read the koff as a measure of how fast the partners let go of each other. What is called kon is a measure of how fast the partners come together.

B1: BisG2amm-EpCAM-323-A3-AALT/m4-1BB-3H3-AAKR (bispecific antibody, mouse IgG2a, kappa)
heavy 1: QIQLVQSGPELKKPGETVKISCKASGYTFTNYGMNWVRQASGEGLKWMGWINTYTGEPTYGEDFKGRFAFSLETSASTAYLQINNLKNEDTATYFCARFGNYVDYWGQGTTLTVSSAKTTAPSVYPLAPVCGDTTGSSVTLGCLVKGYFPEPVTLTWNSGSLSSGVHTFPAVLQSDLYTLSSSVTVTSSTWPSQSITCNVAHPASSTKVDKKIEPRGPTIKPCPPCKCPAPNAAGGPSVFIFPPKIKDVLMISLSPMVTCVVVDVSEDDPDVQISWFVNNVEVLTAQTQTHREDYNSTLRVVSALPIQHQDWMSGKEFKCKVNNKALPAPIERTISKPKGSVRAPQVYVLPPPEEEMTKKQVTLTCMVTDFMPEDIYVEWTNNGKTELNYKNTEPVLDSDGSYLMYSKLTVEKKNWVERNSYSCSVVHEGLHNHHTTKSFSRTPG
light 1: DIVMTQAAFSNPVTLGTSASISCRSSKNLLHSNGITYLYWYLQKPGQSPHLLIYQMSNLASGVPDRFSSSGSGTDFTLRISRVEAEDVGVYYCAQNLEIPRTFGGGTKLEIKRADAAPTVSIFPPSSEQLTSGGASVVCFLNNFYPKDINVKWKIDGSERQNGVLNSWTDQDSKDSTYSMSSTLTLTKDEYERHNSYTCEATHKTSTSPIVKSFNRNEC
heavy 2: EMQLVESGGGLVQPGRSMKLSCAGSGFTLSDYGVAWVRQAPKKGLEWVAYISYAGGTTYYRESVKGRFTISRDNAKSTLYLQMDSLRSEDTATYYCTIDGYGGYSGSHWYFDFWGPGTMVTVSSAKTTAPSVYPLAPVCGDTTGSSVTLGCLVKGYFPEPVTLTWNSGSLSSGVHTFPAVLQSDLYTLSSSVTVTSSTWPSQSITCNVAHPASSTKVDKKIEPRGPTIKPCPPCKCPAPNAAGGPSVFIFPPKIKDVLMISLSPMVTCVVVDVSEDDPDVQISWFVNNVEVLTAQTQTHREDYNSTLRVVSALPIQHQDWMSGKEFKCKVNNKALPAPIERTISKPKGSVRAPQVYVLPPPEEEMTKKQVTLTCMVKDFMPEDIYVEWTNNGKTELNYKNTEPVLDSDGSYFMYSRLRVEKKNWVERNSYSCSVVHEGLHNHHTTKSFSRTPG
light 2: DIQMTQSPSLLSASVGDRVTLNCRTSQNVYKNLAWYQQKLGEAPKLLIYNANSLQAGIPSRFSGSGSGTDFTLTISSLQPEDVATYFCQQYYSGNTFGAGTNLELKRADAAPTVSIFPPSSEQLTSGGASVVCFLNNFYPKDINVKWKIDGSERQNGVLNSWTDQDSKDSTYSMSSTLTLTKDEYERHNSYTCEATHKTSTSPIVKSFNRNEC
notes: Mouse IgG2a bispecific made by controlled Fab-arm exchange; one EpCAM arm, so monovalent for EpCAM; also called BsIgG2amm-EpCAM-323-A3-AALT/m4-1BB-3H3-AAKR; BisIgG2amm-EpCAM-323-A3-AALT/m4-1BB-3H3-AAKR
As for B1, the Response in assay [1] was 1.21 nm. In assay [2], the Kd amounted to 3.2 nM, the dissociation rate constant (koff) is 0.0011 s⁻¹ and the kon turned out to be 340000 M⁻¹ s⁻¹.

B2: IgG1-b12-FEAL (antibody, V domains shown)
VH: QVQLVQSGAEVKKPGASVKVSCQASGYRFSNFVIHWVRQAPGQRFEWMGWINPYNGNKEFSAKFQDRVTFTADTSANTAYMELRSLRSADTAVYYCARVGPYSWDDSPQDNYYMDVWGKGTTVIVSS
VL: EIVLTQSPGTLSLSPGERATFSCRSSHSIRSRRVAWYQHKPGQAPRLVIHGVSNRASGISDRFSGSGSGTDFTLTITRVEPEDFALYYCQVYGASSYTFGQGTKLERKR
notes: also called negative control antibody
Regarding B2, the binding result in assay [3] is “no binding (tested: up to 50 µg/mL)”.

B3: bsIgG1-b12-FEAL/EpCAM-323-A3-FEAR (bispecific antibody)
heavy 1: QVQLVQSGAEVKKPGASVKVSCQASGYRFSNFVIHWVRQAPGQRFEWMGWINPYNGNKEFSAKFQDRVTFTADTSANTAYMELRSLRSADTAVYYCARVGPYSWDDSPQDNYYMDVWGKGTTVIVSSASTKGPSVFPLAPSSKSTSGGTAALGCLVKDYFPEPVTVSWNSGALTSGVHTFPAVLQSSGLYSLSSVVTVPSSSLGTQTYICNVNHKPSNTKVDKRVEPKSCDKTHTCPPCPAPEFEGGPSVFLFPPKPKDTLMISRTPEVTCVVVAVSHEDPEVKFNWYVDGVEVHNAKTKPREEQYNSTYRVVSVLTVLHQDWLNGKEYKCKVSNKALPAPIEKTISKAKGQPREPQVYTLPPSREEMTKNQVSLTCLVKGFYPSDIAVEWESNGQPENNYKTTPPVLDSDGSFLLYSKLTVDKSRWQQGNVFSCSVMHEALHNHYTQKSLSLSPG
light 1: EIVLTQSPGTLSLSPGERATFSCRSSHSIRSRRVAWYQHKPGQAPRLVIHGVSNRASGISDRFSGSGSGTDFTLTITRVEPEDFALYYCQVYGASSYTFGQGTKLERKRTVAAPSVFIFPPSDEQLKSGTASVVCLLNNFYPREAKVQWKVDNALQSGNSQESVTEQDSKDSTYSLSSTLTLSKADYEKHKVYACEVTHQGLSSPVTKSFNRGEC
heavy 2: QIQLVQSGPELKKPGETVKISCKASGYTFTNYGMNWVRQASGEGLKWMGWINTYTGEPTYGEDFKGRFAFSLETSASTAYLQINNLKNEDTATYFCARFGNYVDYWGQGTTLTVSSASTKGPSVFPLAPSSKSTSGGTAALGCLVKDYFPEPVTVSWNSGALTSGVHTFPAVLQSSGLYSLSSVVTVPSSSLGTQTYICNVNHKPSNTKVDKRVEPKSCDKTHTCPPCPAPEFEGGPSVFLFPPKPKDTLMISRTPEVTCVVVAVSHEDPEVKFNWYVDGVEVHNAKTKPREEQYNSTYRVVSVLTVLHQDWLNGKEYKCKVSNKALPAPIEKTISKAKGQPREPQVYTLPPSREEMTKNQVSLTCLVKGFYPSDIAVEWESNGQPENNYKTTPPVLDSDGSFFLYSRLTVDKSRWQQGNVFSCSVMHEALHNHYTQKSLSLSPG
light 2: DIVMTQAAFSNPVTLGTSASISCRSSKNLLHSNGITYLYWYLQKPGQSPHLLIYQMSNLASGVPDRFSSSGSGTDFTLRISRVEAEDVGVYYCAQNLEIPRTFGGGTKLEIKRTVAAPSVFIFPPSDEQLKSGTASVVCLLNNFYPREAKVQWKVDNALQSGNSQESVTEQDSKDSTYSLSSTLTLSKADYEKHKVYACEVTHQGLSSPVTKSFNRGEC
B3: the binding result in assay [4], in assay [5] and in assay [6] was “binds” in each case.

Source of the values: patent US20230295335A1 (published 2023).
